For series [1], the target named is PlxnA2 extracellular-transmembrane segment fused to mTFP1 (donor) or mVenus (acceptor) (mouse). In words: FRET or BRET; FRET-FLIM in live COS-7 cells co-expressing mTFP1- and mVenus-fused PlxnA2; before Sema6A stimulation. For orientation: In BRET a luciferase serves as donor, and the signal depends on an acceptor being close.
The target of series [2] is PlxnA1_(1-10), full extracellular segment of mouse PlxnA1 (domains 1-10) (mouse) (UniProt P70206). Description: AUC; sedimentation velocity, 40,000 rpm, absorbance at 280 nm, c(s) analysis; protein at 28.1 μM (4 mg/ml).
Series [3] concerns the molecule itself. In words: crystal structure; crystals of full extracellular segments; intermolecular plexin-plexin interface in the crystal; 4 to 10 Å.
Series [4] deals with T1, PlxnA2_(1-2), PlxnA2 sema-PSI1 domains (mouse, UniProt P70207 31-561).
T1 construct: Plexin-A2, mouse, sema and PSI1 domains (domains 1-2)
T1 sequence: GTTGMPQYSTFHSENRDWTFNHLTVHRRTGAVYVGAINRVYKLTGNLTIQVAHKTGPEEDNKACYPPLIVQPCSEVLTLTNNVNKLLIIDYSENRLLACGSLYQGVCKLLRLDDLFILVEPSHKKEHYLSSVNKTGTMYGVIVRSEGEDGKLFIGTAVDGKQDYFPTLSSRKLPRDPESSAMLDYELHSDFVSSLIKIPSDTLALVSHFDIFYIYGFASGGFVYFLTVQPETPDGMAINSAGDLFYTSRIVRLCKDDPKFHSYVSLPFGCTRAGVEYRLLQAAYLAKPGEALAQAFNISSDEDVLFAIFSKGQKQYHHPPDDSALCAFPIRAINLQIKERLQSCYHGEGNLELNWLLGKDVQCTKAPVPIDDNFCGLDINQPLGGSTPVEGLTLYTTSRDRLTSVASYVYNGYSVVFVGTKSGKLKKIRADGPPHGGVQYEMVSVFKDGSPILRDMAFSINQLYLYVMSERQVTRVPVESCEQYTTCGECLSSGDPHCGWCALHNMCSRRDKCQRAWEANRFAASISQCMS
In words: SPR; equilibrium experiments, Biacore T200, 25°C, 10 mM HEPES pH 7.5, 150 mM NaCl, 0.005% Tween 20; biotinylated PlxnA2_(4-5) (wild type or mutant) on streptavidin chip, PlxnA2_(1-2) as analyte; 1:1 Langmuir model. The note with it: both partners purified.

Where “and” joins values, the source holds several entries; their conditions need not be identical. Identical values can stand only once.

Take “PlxnA2 extracellular-transmembrane segment fused to mTFP1 (donor) or mVenus (acceptor) (receptor)”: the average fraction of interacting donor (fD) in series [1] worked out at 0.11. A word on the stoichiometry N: it is the number of molecules, sites or subunits per partner or assembly. For the molecule “PlxnA1_(1-10), full extracellular segment of mouse PlxnA1 (domains 1-10) (from UniProt P70206 28-1242) (domain or fragment)”, in series [2], the stoichiometry N was 2 and 3 and 4.

B1: PlxnA4_(1-10), full extracellular segment of mouse PlxnA4 (domain or fragment, UniProt Q80UG2 24-1236, looked up)
chain: TLLPRQPPQLSQKPSFVTFRGEPAEGFNHLVVDERTGHIYLGAVNRIYKLSSDLKVLVTHQTGPDEDNPKCYPPRIVQTCNEPLASTNNVNKMLLIDYKENRLIACGSLYQGICKLLRLEDLFKLGEPFHKKEHYLSGVNESGSVFGVIVSYSNFDDKLFIATAVDGKPEYFPTISSRKLTKNSEADGMFAYVFHDEFVASMIKIPSDTFTVIPDFDIYYVYGFSSGNFVYFLTLQPEMVSPPGSTTKEQVYTSKLVRLCKEDTAFNSYVEVPIGCERNGVEYRLLQAAYLSKAGAVLGRTLGVRPDDDLLFTVFSKGQKRKMKSLDESALCIFILKQINDRIKDRLQSCYRGEGTLDLAWLKVKDIPCSSALLTIDDNFCGLDMNAPLGVSEMVRGIPVFTEDRDRMTSVIAYVYKNHSLAFVGTKSGKLKKIRVDGPKGNALQYETVQVVDSGPVLRDMAFSKDHEQLYIMSERQLTRVPVESCGQYRSCGECLGSGDPHCGWCVLHNTCTRKERCERSREPRRFASEMKQCVRLTVHPNNISVSQYNVLLVLETYNVPELSAGVNCTFEDLSEMDGLVIGNQIQCYSPAAKEVPRIITENGDHHVVQLQLKSKETGMTFASTSFVFYNCSVHNSCLSCVESPYRCHWCKYRHVCTHDPNTCSFQEGRVKLPEDCPQLLRVDKILVPVEVIKPITLKAKNLPQPQSGQRGYECILNIQGIEQRVPALRFNSSSVQCQNTSYSYEGMEINNLPVELTVVWNGHFNIDNPAQNKVYLYKCGAMRESCGLCLKADPDFECGWCQSPGQCTLRQHCPAHESRWLELSGANSKCTNPRITEIIPVTGPREGGTKVTIRGENLGLEFRDIASHVKVAGVECSPLVDGYIPAEQIVCEMGEAKPSQHAGFVEICVAVCRPEFMARSSQLYYFMTLTLADLKPNRGPMSGGTQVTITGTNLNAGSNVVVMFGSQPCLFHRRSPSYIICNTTSSEEVLDMKVTVQVDRARIRQDLVFQYVEDPTIVRIEPEWSIVSGNTPIAVWGTHLDLIQNPQIRAKHGGKEHINICEVLNATEMTCQAPALALGPDHQSDLTERPEEFGFILDNVQSLLILNKTNFTYYPNPVFEAFSPSGILELKPGTPIILKGKNLIPPVAGGNVKLNYTVLVGEKPCTVTVSDVQLLCESPNLIGRHKVMARVGGMEYSPGMVYIAPDSPLSLP
notes: Plexin-A4, mouse, full extracellular segment (domains 1-10); also called PlxnA4 full ectodomain
B1: in series [3], the binding result is “binds”.

B2: PlxnA2_(4-5), PlxnA2 PSI2-IPT2 domains (domain or fragment, mouse)
chain: NCSAHQLCLSCVNSAFRCHWCKYRNLCTHDPTTCSFQEGRINVSEDCPQLVPTEEILIPVGEVKPITLKARNLPQPQSGQRGYECVLSIQGAVHRVPALRFNSSSVQCQNSSYQYDGMDISNLAVDFAVVWNGNFIIDNPQDLKVHLYK
modifications: enzymatically biotinylated with BirA via an engineered C-terminal tag
notes: Plexin-A2, mouse, PSI2 and IPT2 domains (domains 4-5); The crystallised PlxnA2_(4-5) (PDB 5L74) was made in HEK293S cells; also called wild-type PlxnA2_(4-5); not shown: biotinylation tag (BirA), C-terminal, kept
The Kd is the constant that tells how readily two partners part at equilibrium. The molecule B2 yielded a dissociation constant Kd in series [4] of 20.9 ± 0.38 µM.

B3: PlxnA2_(1-10), full extracellular segment of mouse PlxnA2 (domain or fragment, UniProt P70207 35-1237, looked up)
chain: MPQYSTFHSENRDWTFNHLTVHRRTGAVYVGAINRVYKLTGNLTIQVAHKTGPEEDNKACYPPLIVQPCSEVLTLTNNVNKLLIIDYSENRLLACGSLYQGVCKLLRLDDLFILVEPSHKKEHYLSSVNKTGTMYGVIVRSEGEDGKLFIGTAVDGKQDYFPTLSSRKLPRDPESSAMLDYELHSDFVSSLIKIPSDTLALVSHFDIFYIYGFASGGFVYFLTVQPETPDGMAINSAGDLFYTSRIVRLCKDDPKFHSYVSLPFGCTRAGVEYRLLQAAYLAKPGEALAQAFNISSDEDVLFAIFSKGQKQYHHPPDDSALCAFPIRAINLQIKERLQSCYHGEGNLELNWLLGKDVQCTKAPVPIDDNFCGLDINQPLGGSTPVEGLTLYTTSRDRLTSVASYVYNGYSVVFVGTKSGKLKKIRADGPPHGGVQYEMVSVFKDGSPILRDMAFSINQLYLYVMSERQVTRVPVESCEQYTTCGECLSSGDPHCGWCALHNMCSRRDKCQRAWEANRFAASISQCMSLEVHPNSISVSDHSRLLSLVVNDAPNLSEGIACAFGNLTEVEGQVSGSQVICISPGPKDVPVIPLDQDWFGLELQLRSKETGKIFVSTEFKFYNCSAHQLCLSCVNSAFRCHWCKYRNLCTHDPTTCSFQEGRINVSEDCPQLVPTEEILIPVGEVKPITLKARNLPQPQSGQRGYECVLSIQGAVHRVPALRFNSSSVQCQNSSYQYDGMDISNLAVDFAVVWNGNFIIDNPQDLKVHLYKCAAQRESCGLCLKADHKFECGWCSGERRCTLHQHCPSTSSPWLDWSSHNVKCSNPQITEILTVSGPPEGGTRVTIHGVNLGLDFSEIAHHVQVAGVPCTPIPGEYIIAEQIVCEMGHAVIGTTSGPVRLCIGECKPEFMTKSHQQYTFVNPSVLSLSPIRGPESGGTMVTITGHYLGAGSSVAVYLGNQTCEFYGRSMNEIVCVSPPSSNGLGPVPVSVSVDRARVDSSLQFEYIDDPRVQRIEPEWSITSGHTPLTITGFNLDVIQEPRVRVKFNGKESVNVCTVVNTTTLTCLAPSLTSDYRPGLDTVERPDEFGFLFNNVQSLLIYNDTKFIYYPNPTFELLSPTGILDQKPGSPIILKGKNLCPPASGGAKLNYTVMIGETPCTVTVSETQLLCEPPNLTGQHKVMVHVGGMVFSPGSVSVISDSLLTLP
notes: Plexin-A2, mouse, full extracellular segment (domains 1-10); also called PlxnA2 full ectodomain
Consider B3, for which the binding result in series [3] is given as “binds”.
